In patent US20020192789A1 (published 2002):

B1: phage isolate 5-H11 display polypeptide (other)
chain: AEWHPQFSSPSASRPSEGPCHPQFPRCYIENLDEFRPGGSGGMGDDDDKIYVYKTGAQSDGGGSTEHAEGGSADPSYIEGRIVGSA
notes: The printed 13-mer is used instead; also called 05-H11; not shown: M13 phage gene III protein; the display polypeptide is fused to its N-terminus
B2: phage isolate 5-A11 display polypeptide (other)
chain: AEWHPQFSSPSASRPSEGPCHPQFPRCYIENLDEFRPGGSGGDLNDVYSERMAMWGAQSDGGGSTEHAEGGSADPSYIEGRIVGSA
notes: The printed 13-mer is used instead; also called 05-A11; not shown: M13 phage gene III protein; the display polypeptide is fused to its N-terminus
B3: phage isolate 5-B05 display polypeptide (other)
chain: AEWHPQFSSPSASRPSEGPCHPQFPRCYIENLDEFRPGGSGGSLDDDRTVSPKFWGAQSDGGGSTEHAEGGSADPSYIEGRIVGSA
notes: The printed 13-mer is used instead; also called 05-B05; not shown: M13 phage gene III protein; the display polypeptide is fused to its N-terminus
B4: phage isolate 5-F08 display polypeptide (unselected control) (other)
chain: AEWHPQFSSPSASRPSEGPCHPQFPRCYIENLDEFRPGGSGGAVLSNVMHSDDWTGAQSDGGGSTEHAEGGSADPSYIEGRIVGSA
notes: not shown: M13 phage gene III protein; the display polypeptide is fused to its N-terminus
B5: phage isolate 5-A01 display polypeptide (other)
chain: AEWHPQFSSPSASRPSEGPCHPQFPRCYIENLDEFRPGGSGGDRMYQLDKTGFMIGAQSDGGGSTEHAEGGSADPSYIEGRIVGSA
notes: as for B4
B6: phage isolate 5-A08 display polypeptide (other)
chain: AEWHPQFSSPSASRPSEGPCHPQFPRCYIENLDEFRPGGSGGDMFSEEDRMMQMQGAQSDGGGSTEHAEGGSADPSYIEGRIVGSA
notes: The printed 13-mer is used instead; also called 05-A08; not shown: M13 phage gene III protein; the display polypeptide is fused to its N-terminus

Each binder was assayed against recombinant light chain enterokinase (Novagen, Madison, Wis.) (UniProt P98072 801-1035) (assay: cell-based or functional assay).
Sequence of recombinant light chain enterokinase (Novagen, Madison, Wis.) (P98072 801-1035 limits assumed): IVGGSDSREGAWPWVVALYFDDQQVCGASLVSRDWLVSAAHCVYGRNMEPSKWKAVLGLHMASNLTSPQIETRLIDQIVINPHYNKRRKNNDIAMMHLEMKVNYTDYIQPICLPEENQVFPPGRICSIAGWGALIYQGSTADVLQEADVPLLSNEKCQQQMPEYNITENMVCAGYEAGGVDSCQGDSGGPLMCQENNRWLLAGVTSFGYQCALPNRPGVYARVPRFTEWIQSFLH
DINDDRSLF was tested, and the “test peptide rate (Va), in competition with reference peptide GDDDDK-βNA” value (“test peptide rate (Va), in competition” for short) was 0.18.
For GNYTDRMFI, the “test peptide rate (Va), in competition” value was 0.038.
For GDDDDKIYV [GDDDDKIYV (positive control test peptide)], the “test peptide rate (Va), in competition” value was 0.028.

What follows are binders tested against T1, streptavidin (UniProt P22629 37-163, limits assumed) (assay: phage ELISA, phage bound to immobilized streptavidin).
T1 construct: Commercial immobilized streptavidin; the construct is not described; also called Sv; immobilized streptavidin
T1 sequence (P22629 37-163 limits assumed): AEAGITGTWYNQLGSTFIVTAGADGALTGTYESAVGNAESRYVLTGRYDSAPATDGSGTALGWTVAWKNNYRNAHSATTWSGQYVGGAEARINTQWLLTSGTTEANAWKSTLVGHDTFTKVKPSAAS
B1: binds.
B2: binds.
B3: binds.
B4: binds.
B5: binds.
B6: binds.
